Assay results taken from patent publication US20260232827A1 (Zymeworks, published 2026).
Where a chain is given by its changes, count along the chain named. Like-named read-outs stand apart in the source and are kept apart here.

T1: human sodium-dependent phosphate transporter 2B (NaPi2b) (human, UniProt O95436 1-690)
T1 sequence: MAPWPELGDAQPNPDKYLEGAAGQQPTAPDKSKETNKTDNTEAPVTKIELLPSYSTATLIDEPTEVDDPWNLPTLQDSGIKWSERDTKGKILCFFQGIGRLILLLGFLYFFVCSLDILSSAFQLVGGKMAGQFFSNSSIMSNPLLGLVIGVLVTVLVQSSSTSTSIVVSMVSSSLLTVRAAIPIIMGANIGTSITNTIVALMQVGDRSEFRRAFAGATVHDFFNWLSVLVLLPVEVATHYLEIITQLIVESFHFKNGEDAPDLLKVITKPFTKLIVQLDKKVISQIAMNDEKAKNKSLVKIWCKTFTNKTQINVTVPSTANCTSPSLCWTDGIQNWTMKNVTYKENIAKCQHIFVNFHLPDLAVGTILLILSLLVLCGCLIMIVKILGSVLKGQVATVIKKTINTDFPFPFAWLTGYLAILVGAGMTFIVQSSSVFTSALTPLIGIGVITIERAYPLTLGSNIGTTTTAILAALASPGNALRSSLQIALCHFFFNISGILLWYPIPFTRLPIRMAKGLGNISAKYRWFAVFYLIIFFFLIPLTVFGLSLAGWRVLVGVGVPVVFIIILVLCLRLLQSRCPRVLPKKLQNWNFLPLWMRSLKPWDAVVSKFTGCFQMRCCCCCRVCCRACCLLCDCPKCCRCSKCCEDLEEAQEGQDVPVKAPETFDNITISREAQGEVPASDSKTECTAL

T2: human sodium-dependent phosphate transporter 2B (NaPi2b) (human, UniProt O95436 1-690)
T2 construct: UniProt ID is given as 095436 [sic]; also called hNaPi2b; Hu NaPi2b
T2 sequence: T1 sequence

T3: human NaPi2b (sodium-dependent phosphate transporter 2B) (human, UniProt O95436 1-690)
T3 sequence: T1 sequence

B1: v29456-MT-GGFG-AM-Compound 136 DAR 8 (antibody, human IgG1, kappa)
heavy: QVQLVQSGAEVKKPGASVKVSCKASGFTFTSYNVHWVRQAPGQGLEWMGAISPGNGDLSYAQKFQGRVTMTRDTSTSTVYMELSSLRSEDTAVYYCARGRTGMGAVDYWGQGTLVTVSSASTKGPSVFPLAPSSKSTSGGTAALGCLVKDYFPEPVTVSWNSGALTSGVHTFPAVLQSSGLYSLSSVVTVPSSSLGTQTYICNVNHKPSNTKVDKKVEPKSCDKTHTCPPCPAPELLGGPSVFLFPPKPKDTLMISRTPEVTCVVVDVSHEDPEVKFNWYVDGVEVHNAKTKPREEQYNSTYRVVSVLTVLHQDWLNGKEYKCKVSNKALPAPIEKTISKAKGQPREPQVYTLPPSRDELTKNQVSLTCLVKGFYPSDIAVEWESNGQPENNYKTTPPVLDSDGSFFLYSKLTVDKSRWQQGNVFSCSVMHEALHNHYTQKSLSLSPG
light: DVQMTQSPSSLSASVGDRVTITCRASQDVYSYLNWYQQKPGKAVKLLIYYTSRLQSGVPSRFSGSGSGTDYTLTISSLQPEDFATYYCQQYNIFPWTFGQGTKLEIKRTVAAPSVFIFPPSDEQLKSGTASVVCLLNNFYPREAKVQWKVDNALQSGNSQESVTEQDSKDSTYSLSSTLTLSKADYEKHKVYACEVTHQGLSSPVTKSFNRGEC
modifications: drug-linker MT-GGFG-AM-Compound 136 on cysteine thiols after TCEP reduction, positions not given; DAR 8 for the whole antibody
B2: v29456-MT-GGFG-Compound 140 DAR 8 (antibody, human IgG1, kappa)
heavy: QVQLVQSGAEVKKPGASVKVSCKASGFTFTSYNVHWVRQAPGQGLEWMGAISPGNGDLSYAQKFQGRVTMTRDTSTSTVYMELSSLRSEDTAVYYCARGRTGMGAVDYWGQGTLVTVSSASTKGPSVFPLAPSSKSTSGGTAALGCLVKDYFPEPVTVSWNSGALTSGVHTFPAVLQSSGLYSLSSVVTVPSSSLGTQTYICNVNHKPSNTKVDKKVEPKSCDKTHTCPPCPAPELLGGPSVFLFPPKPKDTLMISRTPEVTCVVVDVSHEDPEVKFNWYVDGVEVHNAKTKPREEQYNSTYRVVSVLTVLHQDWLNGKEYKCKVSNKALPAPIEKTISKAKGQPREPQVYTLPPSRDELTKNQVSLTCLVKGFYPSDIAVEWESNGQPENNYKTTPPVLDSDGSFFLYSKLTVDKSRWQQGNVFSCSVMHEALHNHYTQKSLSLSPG
light: B1 light
modifications: drug-linker MT-GGFG-Compound 140 on cysteine thiols after TCEP reduction, positions not given; DAR 8 for the whole antibody
B3: v29456-MC-GGFG-AM-DXd1 DAR 8 (antibody, human IgG1, kappa)
heavy: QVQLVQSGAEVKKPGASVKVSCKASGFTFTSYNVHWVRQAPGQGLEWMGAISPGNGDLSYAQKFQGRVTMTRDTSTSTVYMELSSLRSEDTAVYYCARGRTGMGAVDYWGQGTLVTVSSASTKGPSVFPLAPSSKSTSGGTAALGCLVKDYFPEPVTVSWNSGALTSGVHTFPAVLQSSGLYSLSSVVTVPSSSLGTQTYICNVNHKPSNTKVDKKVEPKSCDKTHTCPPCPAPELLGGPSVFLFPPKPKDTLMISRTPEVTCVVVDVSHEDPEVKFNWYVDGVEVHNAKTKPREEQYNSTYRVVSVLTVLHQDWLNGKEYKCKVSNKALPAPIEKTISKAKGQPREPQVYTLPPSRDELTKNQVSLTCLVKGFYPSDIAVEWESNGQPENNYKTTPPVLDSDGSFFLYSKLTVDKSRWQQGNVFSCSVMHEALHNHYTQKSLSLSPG
light: B1 light
modifications: drug-linker MC-GGFG-AM-DXd1 on cysteine thiols after TCEP reduction, positions not given; DAR 8 for the whole antibody
B4: v29456-MT-GGFG-Compound 148 DAR 8 (antibody, human IgG1, kappa)
heavy: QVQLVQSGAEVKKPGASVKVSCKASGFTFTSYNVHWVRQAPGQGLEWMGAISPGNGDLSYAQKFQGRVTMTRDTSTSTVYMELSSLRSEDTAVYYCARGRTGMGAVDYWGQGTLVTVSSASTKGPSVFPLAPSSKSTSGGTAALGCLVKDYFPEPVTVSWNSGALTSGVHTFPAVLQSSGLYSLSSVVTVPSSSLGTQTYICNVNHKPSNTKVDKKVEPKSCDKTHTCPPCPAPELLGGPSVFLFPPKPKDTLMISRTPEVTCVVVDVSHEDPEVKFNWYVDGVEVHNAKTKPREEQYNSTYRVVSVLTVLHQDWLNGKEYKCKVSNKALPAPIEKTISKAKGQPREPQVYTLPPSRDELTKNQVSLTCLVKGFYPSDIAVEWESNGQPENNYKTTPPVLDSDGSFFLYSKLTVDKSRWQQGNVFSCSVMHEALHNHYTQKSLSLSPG
light: B1 light
modifications: drug-linker MT-GGFG-Compound 148 on cysteine thiols after TCEP reduction, positions not given; DAR 8 for the whole antibody
B5: v29456-MC-GGFG-Compound 141 DAR 3.4 (antibody, human IgG1, kappa)
heavy: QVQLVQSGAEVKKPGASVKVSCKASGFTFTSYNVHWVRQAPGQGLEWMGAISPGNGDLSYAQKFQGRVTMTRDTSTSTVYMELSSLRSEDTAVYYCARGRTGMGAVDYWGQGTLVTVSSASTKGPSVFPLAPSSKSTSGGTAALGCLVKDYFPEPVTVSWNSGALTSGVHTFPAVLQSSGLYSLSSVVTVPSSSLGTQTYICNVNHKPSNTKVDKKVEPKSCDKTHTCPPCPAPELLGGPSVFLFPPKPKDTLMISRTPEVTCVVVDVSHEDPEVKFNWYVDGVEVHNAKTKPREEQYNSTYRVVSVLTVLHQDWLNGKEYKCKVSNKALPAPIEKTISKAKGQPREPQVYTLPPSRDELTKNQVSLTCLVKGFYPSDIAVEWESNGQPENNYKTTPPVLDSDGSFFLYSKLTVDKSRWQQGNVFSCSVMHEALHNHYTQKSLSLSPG
light: B1 light
modifications: drug-linker MC-GGFG-Compound 141 on cysteine thiols after TCEP reduction, positions not given; DAR 3.4 for the whole antibody
B6: v29456-MC-GGFG-AM-Compound 139 DAR 3.4 (antibody, human IgG1, kappa)
heavy: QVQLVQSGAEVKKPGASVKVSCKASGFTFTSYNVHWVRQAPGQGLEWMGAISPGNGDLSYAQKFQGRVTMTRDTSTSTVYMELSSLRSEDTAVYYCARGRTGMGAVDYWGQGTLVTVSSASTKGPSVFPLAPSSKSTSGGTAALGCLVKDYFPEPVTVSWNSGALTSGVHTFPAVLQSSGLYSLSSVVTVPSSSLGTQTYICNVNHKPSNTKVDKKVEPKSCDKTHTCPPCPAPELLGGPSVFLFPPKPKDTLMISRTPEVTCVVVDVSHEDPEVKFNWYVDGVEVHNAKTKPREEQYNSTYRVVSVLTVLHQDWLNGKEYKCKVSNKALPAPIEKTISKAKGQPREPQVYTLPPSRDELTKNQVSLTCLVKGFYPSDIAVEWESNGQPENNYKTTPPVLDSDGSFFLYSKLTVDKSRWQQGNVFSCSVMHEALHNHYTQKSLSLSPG
light: B1 light
modifications: drug-linker MC-GGFG-AM-Compound 139 on cysteine thiols after TCEP reduction, positions not given; DAR 3.4 for the whole antibody
B7: v29456-MT-GGFG-AM-Compound 129 DAR 8 (antibody, human IgG1, kappa)
heavy: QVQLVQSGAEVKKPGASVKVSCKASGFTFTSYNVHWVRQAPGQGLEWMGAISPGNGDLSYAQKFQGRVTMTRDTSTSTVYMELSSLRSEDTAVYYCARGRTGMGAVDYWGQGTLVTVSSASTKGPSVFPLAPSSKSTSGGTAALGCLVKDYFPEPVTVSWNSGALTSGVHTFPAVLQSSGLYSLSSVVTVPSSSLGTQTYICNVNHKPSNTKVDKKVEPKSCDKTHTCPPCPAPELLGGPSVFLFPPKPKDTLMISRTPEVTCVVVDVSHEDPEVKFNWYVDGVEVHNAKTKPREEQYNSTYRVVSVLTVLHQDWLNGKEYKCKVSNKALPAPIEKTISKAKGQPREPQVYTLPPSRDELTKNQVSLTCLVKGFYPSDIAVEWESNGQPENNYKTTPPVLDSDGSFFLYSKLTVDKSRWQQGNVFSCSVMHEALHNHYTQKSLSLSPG
light: B1 light
modifications: drug-linker MT-GGFG-AM-Compound 129 on cysteine thiols after TCEP reduction, positions not given; DAR 8 for the whole antibody
B8: v29456-MT-GGFG-AM-Compound 141 DAR 8 (antibody, human IgG1, kappa)
heavy: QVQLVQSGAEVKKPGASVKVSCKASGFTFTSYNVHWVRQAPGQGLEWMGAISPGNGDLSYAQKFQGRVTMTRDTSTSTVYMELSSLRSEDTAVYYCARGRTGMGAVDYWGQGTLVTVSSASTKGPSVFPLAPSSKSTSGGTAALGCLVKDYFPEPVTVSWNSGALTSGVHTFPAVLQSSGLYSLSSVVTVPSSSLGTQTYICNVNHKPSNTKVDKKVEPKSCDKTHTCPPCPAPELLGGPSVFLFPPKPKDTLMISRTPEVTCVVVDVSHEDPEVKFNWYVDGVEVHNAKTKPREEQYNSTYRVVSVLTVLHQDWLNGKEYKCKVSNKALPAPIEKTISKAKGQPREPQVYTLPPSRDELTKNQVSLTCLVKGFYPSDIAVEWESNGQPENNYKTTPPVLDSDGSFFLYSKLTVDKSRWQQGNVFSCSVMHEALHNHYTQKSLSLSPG
light: B1 light
modifications: drug-linker MT-GGFG-AM-Compound 141 on cysteine thiols after TCEP reduction, positions not given; DAR 8 for the whole antibody
B9: v29456-MT-GGFG-AM-Compound 139 DAR 8 (antibody, human IgG1, kappa)
heavy: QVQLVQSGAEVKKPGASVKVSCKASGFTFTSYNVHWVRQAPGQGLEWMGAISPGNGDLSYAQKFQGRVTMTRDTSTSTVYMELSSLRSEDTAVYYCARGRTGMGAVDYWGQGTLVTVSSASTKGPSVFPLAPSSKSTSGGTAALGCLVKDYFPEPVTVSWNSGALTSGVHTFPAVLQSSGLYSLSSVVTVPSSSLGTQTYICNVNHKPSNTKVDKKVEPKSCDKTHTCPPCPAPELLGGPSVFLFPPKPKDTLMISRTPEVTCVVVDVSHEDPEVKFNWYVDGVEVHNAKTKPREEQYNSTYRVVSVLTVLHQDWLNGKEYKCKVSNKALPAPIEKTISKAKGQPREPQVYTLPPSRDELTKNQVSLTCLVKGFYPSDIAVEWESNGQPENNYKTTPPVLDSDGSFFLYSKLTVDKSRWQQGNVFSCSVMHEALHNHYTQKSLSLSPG
light: B1 light
modifications: drug-linker MT-GGFG-AM-Compound 139 on cysteine thiols after TCEP reduction, positions not given; DAR 8 for the whole antibody
B10: v29456-MC-GGFG-Compound 141 DAR 8 (antibody, human IgG1, kappa)
heavy: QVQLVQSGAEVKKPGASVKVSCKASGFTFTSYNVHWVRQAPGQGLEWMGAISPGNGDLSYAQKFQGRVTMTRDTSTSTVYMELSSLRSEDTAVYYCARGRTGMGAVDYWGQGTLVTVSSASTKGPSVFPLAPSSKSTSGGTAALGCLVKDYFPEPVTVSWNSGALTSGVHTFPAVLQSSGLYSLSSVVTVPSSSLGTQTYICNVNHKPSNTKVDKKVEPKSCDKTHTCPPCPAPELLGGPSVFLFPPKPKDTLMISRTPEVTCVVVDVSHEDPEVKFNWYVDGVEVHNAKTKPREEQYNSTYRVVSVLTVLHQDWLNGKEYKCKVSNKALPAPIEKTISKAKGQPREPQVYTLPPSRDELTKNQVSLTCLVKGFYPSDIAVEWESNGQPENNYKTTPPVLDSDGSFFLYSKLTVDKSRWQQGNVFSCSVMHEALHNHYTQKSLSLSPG
light: B1 light
modifications: drug-linker MC-GGFG-Compound 141 on cysteine thiols after TCEP reduction, positions not given; DAR 8.0 for the whole antibody
B11: v29455 (H2L2) (antibody, human IgG1, kappa, V domains shown)
VH: QVQLVQSGAEVKKPGASVKVSCKASGFTFTSYNVHWVRQAPGQGLEWIAAISPGNGDLSYAQKFQGRVTMTVDTSTSTVYMELSSLRSEDTAVYYCARGRTGMGAVDYWGQGTLVTVSS
VL: DVQMTQSPSSLSASVGDRVTITCRASQDVYSYLNWYQQKPGKAVKLLIYYTSRLQSGVPSRFSGSGSGTDYTLTISSLQPEDFATYYCQQYNIFPWTFGQGTKLEIKR
notes: Humanized IgG1/kappa
B12: v29451 (H2L3) (antibody, human IgG1, kappa, V domains shown)
VH: B11 VH
VL: B11 VL with F83I
notes: Humanized IgG1/kappa
B13: v29460 (H1L1) (antibody, human IgG1, kappa, V domains shown)
VH: B11 VH with I48M, A49G, V72R
VL: B11 VL with V2I, V44P, Y71F
notes: Humanized IgG1/kappa
B14: v29450 (H3L3) (antibody, human IgG1, kappa, V domains shown)
VH: B11 VH with V20M, V68A, M70L, V79A
VL: B11 VL with F83I
notes: Humanized IgG1/kappa
B15: v29459 (H2L1) (antibody, human IgG1, kappa, V domains shown)
VH: B11 VH
VL: B11 VL with V2I, V44P, Y71F
notes: Humanized IgG1/kappa
B16: v29458 (H3L1) (antibody, human IgG1, kappa, V domains shown)
VH: B11 VH with V20M, V68A, M70L, V79A
VL: B11 VL with V2I, V44P, Y71F
notes: Humanized IgG1/kappa
B17: v29453 (H4L2) (antibody, human IgG1, kappa, V domains shown)
VH: B11 VH with V20M, V68A, M70L, T74R, V79A
VL: B11 VL
notes: Humanized IgG1/kappa; clones CL_#21506 and CL_#21508
B18: v29449 (H4L3) (antibody, human IgG1, kappa, V domains shown)
VH: B11 VH with V20M, V68A, M70L, T74R, V79A
VL: B11 VL with F83I
notes: Humanized IgG1/kappa
B19: v29454 (H3L2) (antibody, human IgG1, kappa, V domains shown)
VH: B11 VH with V20M, V68A, M70L, V79A
VL: B11 VL
notes: Humanized IgG1/kappa
B20: v29457 (H4L1) (antibody, human IgG1, kappa, V domains shown)
VH: B11 VH with V20M, V68A, M70L, T74R, V79A
VL: B11 VL with V2I, V44P, Y71F
notes: Humanized IgG1/kappa; clones CL_#21506 and CL_#21507
B21: palivizumab (anti-RSV antibody, v21995) (antibody, human IgG1, kappa, V domains shown)
VH: QVTLRESGPALVKPTQTLTLTCTFSGFSLSTSGMSVGWIRQPPGKALEWLADIWWDDKKDYNPSLKSRLTISKDTSKNQVVLKVTNMDPADTATYYCARSMITNWYFDVWGAGTTVTVSS
VL: DIQMTQSPSTLSASVGDRVTITCKSQLSVGYMHWYQQKPGKAPKLLIYDTSKLASGVPSRFSGSGSGTEFTLTISSLQPDDFATYYCFQGSGYPFTFGGGTKLEIKR
B22: v18993 (lifastuzumab)-DL2 (antibody, human IgG1, kappa)
heavy 1: GEVQLVESGGGLVQPGGSLRLSCAASGFSFSDFAMSWVRQAPGKGLEWVATIGRVAFHTYYPDSMKGRFTISRDNSKNTLYLQMNSLRAEDTAVYYCARHRGFDVGHFDFWGQGTLVTVSSASTKGPSVFPLAPSSKSTSGGTAALGCLVKDYFPEPVTVSWNSGALTSGVHTFPAVLQSSGLYSLSSVVTVPSSSLGTQTYICNVNHKPSNTKVDKKVEPKSCDKTHTCPPCPAPELLGGPSVFLFPPKPKDTLMISRTPEVTCVVVDVSHEDPEVKFNWYVDGVEVHNAKTKPREEQYNSTYRVVSVLTVLHQDWLNGKEYKCKVSNKALPAPIEKTISKAKGQPREPQVYVYPPSRDELTKNQVSLTCLVKGFYPSDIAVEWESNGQPENNYKTTPPVLDSDGSFALVSKLTVDKSRWQQGNVFSCSVMHEALHNHYTQKSLSLSPG
heavy 2: not shown
light: GDIQMTQSPSSLSASVGDRVTITCRSSETLVHSSGNTYLEWYQQKPGKAPKLLIYRVSNRFSGVPSRFSGSGSGTDFTLTISSLQPEDFATYYCFQGSFNPLTFGQGTKVEIKRTVAAPSVFIFPPSDEQLKSGTASVVCLLNNFYPREAKVQWKVDNALQSGNSQESVTEQDSKDSTYSLSSTLTLSKADYEKHKVYACEVTHQGLSSPVTKSFNRGEC
modifications: as above; maleimide functionalized auristatin drug linker (DL2); sites and DAR not stated
notes: also called lifastuzumab-DL2 ADC

Legend:
[1] = target: T1, human sodium-dependent phosphate …; assay: cell-based or functional assay
[2] = target: T1, human sodium-dependent phosphate …; assay: cell-based or functional assay; remark: listed apart in the source
[3] = target: T1, human sodium-dependent phosphate …; assay: cell-based or functional assay; remark: listed apart in the source
[4] = target: T1, human sodium-dependent phosphate …; assay: cell-based or functional assay; remark: listed apart in the source
[5] = target: T2, human sodium-dependent phosphate …; assay: flow cytometry, IGROV-1 cells (endogenous NaPi2b); apparent Kd
Experimental: Briefly, cells were seeded at 50,000 cells/well in conical-bottom 96-well plates and treated with test antibody for 24 hours at 4° C. to prevent internalization. […] Following incubation and washing, fluorescence was detected by flow cytometry on a BD LSRFortessa™ Cell Analyzer (BD Biosciences, Franklin Lake, NJ) with 1,000 minimum events collected per well.

[6] = target: T2, human sodium-dependent phosphate …; assay: flow cytometry, IGROV-1 cells (endogenous NaPi2b); parameters: unit not given here
[7] = target: T3, human NaPi2b (sodium-dependent …); assay: cell-based or functional assay

Row | Binder | EC50, in vitro cytotoxicity, 2D monolayer, HCC-78 [1] [nM] | Kd [5] [nM] | Bmax [6] | also measured
1 | B1 | 0.43 |  |  | EC50, in vitro cytotoxicity, 2D monolayer, IGROV-1 [1]: 4.48 nM
2 | B2 | 0.6 |  |  | EC50, in vitro cytotoxicity, HCC-78 spheroids [2]: 0.19 nM; EC50, in vitro cytotoxicity, IGROV-1 spheroids [2]: 0.25 nM
3 | B3 | 0.55 |  |  | EC50, in vitro cytotoxicity, HCC-78 spheroids [2]: 0.6 nM; EC50, in vitro cytotoxicity, IGROV-1 spheroids [2]: 0.27 nM; EC50, in vitro cytotoxicity, 2D monolayer, IGROV-1 [1]: 0.45 nM
4 | B4 | 1.98 |  |  | 
5 | B5 |  |  |  | EC50, in vitro cytotoxicity, 2D monolayer, IGROV-1 [3]: 16.4 nM; EC50, in vitro cytotoxicity, IGROV-1 spheroids [4]: 1.31 nM; EC50, in vitro cytotoxicity, TOV-21G:HDFa (1:1) spheroids [4]: 0.99 nM
6 | B6 |  |  |  | EC50, in vitro cytotoxicity, 2D monolayer, IGROV-1 [3]: 5.46 nM; EC50, in vitro cytotoxicity, IGROV-1 spheroids [4]: 0.88 nM; EC50, in vitro cytotoxicity, TOV-21G:HDFa (1:1) spheroids [4]: 0.76 nM
7 | B7 | 0.42 |  |  | EC50, in vitro cytotoxicity, 2D monolayer, IGROV-1 [1]: 1.11 nM
8 | B8 | 0.26 |  |  | EC50, in vitro cytotoxicity, HCC-78 spheroids [2]: 0.33 nM; EC50, in vitro cytotoxicity, IGROV-1 spheroids [2]: 0.21 nM; EC50, in vitro cytotoxicity, 2D monolayer, IGROV-1 [1]: 1.56 nM
9 | B9 | 0.65 |  |  | EC50, in vitro cytotoxicity, HCC-78 spheroids [2]: 0.82 nM; EC50, in vitro cytotoxicity, IGROV-1 spheroids [2]: 0.37 nM; EC50, in vitro cytotoxicity, 2D monolayer, IGROV-1 [1]: 1.71 nM
10 | B10 |  |  |  | EC50, in vitro cytotoxicity, 2D monolayer, IGROV-1 [3]: 3.01 nM; EC50, in vitro cytotoxicity, 2D monolayer, TOV-21G [3]: 0.93 nM; EC50, in vitro cytotoxicity, IGROV-1 spheroids [4]: 0.44 nM; EC50, in vitro cytotoxicity, TOV-21G:HDFa (1:1) spheroids [4]: 0.9 nM
11 | B11 |  | 1.18 | 41900 | 
12 | B12 |  | 1.49 | 46200 | 
13 | B13 |  | 1.67 | 40100 | 
14 | B14 |  | 0.96 | 43800 | 
15 | B15 |  | 1.61 | 40900 | 
16 | B16 |  | 1.39 | 40800 | 
17 | B17 |  | 0.82 | 44500 | 
18 | B18 |  | 0.79 | 44500 | 
19 | B19 |  | 0.92 | 42300 | 
20 | B20 |  | 1.73 | 44500 | 
21 | B21 |  |  |  | Internalized Fluorescence Fold-Over Untreated, H441, 4 h, 2.5 nM [7]: 1 fold; Internalized Fluorescence Fold-Over Untreated, H441, 24 h, 2.5 nM [7]: 1.1 fold; Internalized Fluorescence Fold-Over Untreated, HCC-78, 4 h, 2.5 nM [7]: 1 fold; Internalized Fluorescence Fold-Over Untreated, HCC-78, 24 h, 2.5 nM [7]: 1.1 fold; Internalized Fluorescence Fold-Over Untreated, IGROV-1, 4 h, 2.5 nM [7]: 0.9 fold; Internalized Fluorescence Fold-Over Untreated, IGROV-1, 24 h, 2.5 nM [7]: 1 fold
22 | B22 |  | 3 | 39800 | 
